Results published in patent publication US8703503B2, “Methods and compositions for inhibition of BCL6 repression” (Albert Einstein School of Medicine of Yeshiva University, priority 2003, dated 2014).
“Also recorded” adds a separate entry of the source. One block for each molecule: values may come before it. Residues, ends and D or L forms follow the SMILES beside them. No end group written: not given here.

Key:
BCL6 BTB domain [1] = biological target: T1, BCL6 BTB domain (Homo sapiens, UniProt P41182, C67R/C84N/C8Q); experiment: biochemical
Method: Protein Expression and Purification. […] BCL6 BTB domain protein was produced by thrombin digestion of the thioredoxin fusion proteins, and repurified by size-exclusion chromatography in 500 mM NaC1, 20 mM Tris-HCl, 10% glycerol, 1.0 mM TCEP, pH 8.5. Corepressor fusion proteins were biotinylated with BirA and digested with TEV protease to yield peptides for SPR analysis with a biotinylated lysine eight amino acids N-terminal to the first corepressor residue, or digested with thrombin to produce peptides with no additional N-terminal residues for co-crystallization or ITC.
ITC: The binding of SMRT^1414-1430 to BTB domain protein was analyzed on a Microcal VP-ITC instrument at 25° C. All components were in 150 mM NaCl, 20 mM Hepes pH 7.7, 1 mM TCEP. The experiment consisted of thirty 6.93 μL injections of a solution containing 480 μM SMRT^1414-1430 into a sample cell containing 1.8 mL of either BCL6 BTB (23.0 μM) or PLZF BTB (38.5 μM). To correct for dilution and mixing effects, a series of control injections was carried out, in which the heat of dilution was measured in blank titrations by injecting the peptide into the buffer.

[2] = biological target: T2, BCL6 BTB domain H116A mutant (Homo sapiens, UniProt P41182, C67R/C84N/C8Q/H116A); experiment: Co-purification assay with mutant BCL6 BTB domain H116A; type: binding
T2 construct: which is BCL6 residues 5-129, with the point mutations C8Q, C67R and C84N; thioredoxin-6His-TEV site-BirA motif-thrombin site fusion (N, cleaved yes); made in house; host or cells: E. coli
Method: (§1) In vitro binding assays. Co-purification: Equimolar amounts of His-tagged thioredoxin-corepressor fusion protein and BCL6 BTB or PLZF BTB domain were combined, incubated for at least two hours, and loaded onto a Ni-NTA spin column (Qiagen). The column was washed three times with 600 μl of wash buffer (200 mM NaCl, 20 mM Tris-HCl pH 8.0, 10 mM imidazole), and bound protein was released with 400 μl of elution buffer (200 mM NaCl, 20 mM Tris-HCl pH 8.0, 300 mM imidazole). Samples were analyzed on 10-20% SDS-PAGE gels and stained with Coomassie blue.

[3] = biological target: T3, BCL6 BTB domain N21K mutant (Homo sapiens, UniProt P41182, C67R/C84N/C8Q/N21K); experiment: Co-purification assay with mutant BCL6 BTB domain N21K; type: binding
T3 construct: which is BCL6 residues 5-129, with the point mutations C8Q, C67R and C84N; thioredoxin-6His-TEV site-BirA motif-thrombin site fusion (N, cleaved yes); made in house; host or cells: E. coli
Method: as §1

BCL6 BTB domain [4] = biological target: T1, BCL6 BTB domain; experiment: Surface plasmon resonance (SPR) binding of BCL6 BTB domain to immobilized corepressor peptides; design: which is BCL6 residues 5-129, with the point mutations C8Q, C67R and C84N; made in house; conditions: for relative binding affinity by SPR: relative to the longer SMRT peptide(s)
Method: Protein Expression and Purification. […] BCL6 BTB domain protein was produced by thrombin digestion of the thioredoxin fusion proteins, and repurified by size-exclusion chromatography in 500 mM NaC1, 20 mM Tris-HCl, 10% glycerol, 1.0 mM TCEP, pH 8.5.
SPR: Biotinylated corepressor peptides were coupled to streptavidin-coated sensor chips to a density of 800 response units (Biacore 2000). BCL6 or PLZF BTB protein was serially diluted in running buffer (10 mM Hepes, pH 7.4, 150 mM NaCl, 3 mM EDTA, 0.005% v/v surfactant P20) and injected at a flow rate of 5 μL/min.

BCL6 BTB domain [5] = biological target: T1, BCL6 BTB domain; experiment: Electrophoretic mobility shift assay (EMSA) for complex formation of BCoR fragments with BCL6 BTB domain; type: binding; design: which is BCL6 residues 5-129, with the point mutations C8Q, C67R and C84N; made in house; conditions: non-denaturing PAGE
Method: Further mapping of the minimal BCoR fragment was done with a version of an electrophoretic mobility shift assay (EMSA). Purified BCL6 BTB domain was mixed with a BCoR fragment (either as a fusion protein or as a purified peptide) and incubated at room temperature in a non-denaturing buffer. The mixture was analyzed by non-denaturing polyacrylamide gel electrophoresis (PAGE) and protein bands were visualized with either Coomassie blue staining or silver staining. A change in the position of the BCL6 BTB domain band was indicative of complex formation. […] These two sequences correspond to a S507A / W509A / V511A BCoR triple mutation, and to a S507W / W509S BCoR double mutation, respectively.

BCL6 BTB domain [6] = biological target: T1, BCL6 BTB domain; experiment: Co-purification assay (Ni-NTA) of His-tagged corepressor fusion proteins with BTB domain; type: binding; design: which is BCL6 residues 5-129, with the point mutations C8Q, C67R and C84N; made in house
Method: as §1
The initial BCL6 interacting fragment identified in the yeast two-hybrid screen consisted of residues 112-753 of BCoR (Huynh et al., 2000).

stoicheometry of the interaction by ITC (BCL6 BTB domain [1]): 1.11 ±0.06 SMRT peptides per BCL6 chain | enthalpic contribution ΔH (BCL6 BTB domain [1]; ITC): -23.2 ± 1.6 kcal/mol | entropic contribution −TΔS (BCL6 BTB domain [1]; ITC): 16.4±2.3 | binding to H116A mutant BCL6 BTB domain [2]: does not bind | binding to N21K mutant BCL6 BTB domain [3]: does not bind | relative binding affinity by SPR (BCL6 BTB domain [4]): stronger binding
Molecule: CC[C@H](C)[C@H](NC(=O)[C@H](CO)NC(=O)[C@H](CCCNC(=N)N)NC(=O)CNC(=O)[C@H](C)NC(=O)[C@H](CCC(=O)O)NC(=O)[C@H](CCCCN)NC(=O)[C@@H](NC(=O)[C@@H](NC(=O)[C@H](C)NC(=O)[C@@H](NC(=O)[C@@H](N)CC(C)C)C(C)C)[C@@H](C)O)C(C)C)C(=O)N[C@@H](Cc1c[nH]cn1)C(=O)N[C@@H](CCC(=O)O)C(=O)N[C@H](C(=O)N1CCC[C@H]1C(=O)N[C@@H](CCCNC(=N)N)C(=O)O)[C@@H](C)CC [SMRT^1414-1430, lvatvkeagrsiheipr] (H-LVATVKEAGRSIHEIPR-OH)

Kd (BCL6 BTB domain [1]): 11.4 ± 1 µM
Molecule: CC[C@H](C)[C@H](NC(=O)[C@H](CO)NC(=O)[C@H](CCCNC(=N)N)NC(=O)CNC(=O)[C@H](C)NC(=O)[C@H](CCC(=O)O)NC(=O)[C@H](CCCCN)NC(=O)[C@@H](NC(=O)[C@@H](NC(=O)[C@H](C)NC(=O)[C@@H](NC(=O)[C@@H](N)CC(C)C)C(C)C)[C@@H](C)O)C(C)C)C(=O)N[C@@H](Cc1cnc[nH]1)C(=O)N[C@@H](CCC(=O)O)C(=O)N[C@H](C(=O)N1CCC[C@H]1C(=O)N[C@@H](CCCNC(=N)N)C(=O)O)[C@@H](C)CC [SMRT^1414-1430, lvatvkeagrsiheipr] (H-LVATVKEAGRSIHEIPR-OH)

complex formation with the BCL6 BTB domain (EMSA band shift) (BCL6 BTB domain [5]): do not interact
Molecule: BCoR 494-510: thioredoxin-6his fusion protein with BCoR residues 494-510 (CAIYRSEIISTAPSSWV; also: thioredoxin-6His fusion protein)

complex formation with the BCL6 BTB domain (EMSA band shift) (BCL6 BTB domain [5]): complexes were present
Molecule: BCoR 494-514: thioredoxin-6his fusion protein with BCoR residues 494-514 (CAIYRSEIISTAPSSWVVPGP; also: thioredoxin-6His fusion protein)

complex formation with the BCL6 BTB domain (EMSA band shift) (BCL6 BTB domain [5]): complexes were present
Molecule: BCoR 502-522: thioredoxin-6his fusion protein with BCoR residues 502-522 (ISTAPSSWVVPGPSPNEENNG; also: thioredoxin-6His fusion protein)

complex formation with the BCL6 BTB domain (EMSA band shift) (BCL6 BTB domain [5]): do not interact
Molecule: BCoR 506-522: thioredoxin-6his fusion protein with BCoR residues 506-522 (PSSWVVPGPSPNEENNG; also: thioredoxin-6His fusion protein)

Molecule: CAIYRSEIISTAPSSWVVPGPSPNE (not fully specified) [BCoR 494-518, thioredoxin-6his fusion protein with BCoR residues 494-518]
complex formation with the BCL6 BTB domain (EMSA band shift) (BCL6 BTB domain [5]): forms a complex; also recorded: complexes were present

fold stronger affinity of the BTB domain relative to the longer SMRT peptide (BCL6 BTB domain [4]; SPR, ratio of dissociation constants): 2.5 fold
Molecule: N-CoR^1351-1383: N-CoR corepressor peptide, residues 1351-1383, equivalent to the SMRT fragment (IHEIPRQDILTQESRKTPEVVQSTRPIIEGSIS; UniProt O75376 1351-1383, looked up, fragment)

complex formation with the BCL6 BTB domain (EMSA band shift) (BCL6 BTB domain [5]): did not result in a shift
Molecule: RSEIISTAPASAVAPGP [BCoR peptide with S507A / W509A / V511A triple mutation]

complex formation with the BCL6 BTB domain (EMSA band shift) (BCL6 BTB domain [5]): complexes were present
Molecule: RSEIISTAPSSWVVPGP [BCoR 498-514]

complex formation with the BCL6 BTB domain (EMSA band shift) (BCL6 BTB domain [5]): did not result in a shift
Molecule: RSEIISTAPWSSVVPGP [BCoR peptide with S507W / W509S double mutation]

relative binding affinity by SPR (BCL6 BTB domain [4]): slightly weaker binding
Molecule: SMRT^1417-1441: N-terminally truncated SMRT corepressor peptide, residues 1417-1441 (TVKEAGRSIHEIPREELRHTPELPL; not fully specified)

binding to H116A mutant BCL6 BTB domain [2]: significantly reduced affinity | binding to N21K mutant BCL6 BTB domain [3]: no binding at all
Molecule: Trx-(SMRT-BBD): His-tagged thioredoxin fusion protein of the SMRT-BBD (LVATVKEAGRSIHEIPR; also: His-tagged thioredoxin fusion protein)

binding to BCL6 BTB domain in co-purification assay (BCL6 BTB domain [6]): did not
B1: BCoR 112 to 342: hexahistidine tagged fusion protein containing residues 112 to 342 of BCoR (protein, UniProt Q6W2J9 112-342, looked up, fragment)
chain: LGFSSERNPEMQFKPNTPETVEASAVSGKPPNGFSAIYKTPPGIQKSAVATAEALGLDRPASDKQSPLNINGASYLRLPWVNPYMEGATPAIYPFLDSPNKYSLNMYKALLPQQSYSLAQPLYSPVCTNGERFLYLPPPHYVGPHIPSSLASPMRLSTPSASPAIPPLVHCADKSLPWKMGVSPGNPVDSHAYPHIQNSKQPRVPSAKAVTSGLPGDTALLLPPSPRPSPR
modifications: hexahistidine tag
notes: hexahistidine tagged fusion protein containing residues 112 to 342 of BCoR

binding to BCL6 BTB domain in co-purification assay (BCL6 BTB domain [6]): did not
B2: BCoR 542 to 753: hexahistidine tagged fusion protein containing residues 542 to 753 of BCoR (protein, UniProt Q6W2J9 542-753, looked up, fragment)
chain: SSCPRMGGTDAVITNVSGSVSSAGRPASASPAPNANADGTKTSRSSVETTPSVIQHVGQPPATPAKHSSSTSSKGAKASNPEPSFKANENGLPPSSIFLSPNEAFRSPPIPYPRSYLPYPAPEGIAVSPLSLHGKGPVYPHPVLLPNGSLFPGHLAPKPGLPYGLPTGRPEFVTYQDALGLGMVHPMLIPHTPIEITKEEKPERRSRSHERA
modifications: hexahistidine tag
notes: hexahistidine tagged fusion protein containing residues 542 to 753 of BCoR

binding to H116A mutant BCL6 BTB domain [2]: did not bind | binding to N21K mutant BCL6 BTB domain [3]: did not bind | binding to BCL6 BTB domain in co-purification assay (BCL6 BTB domain [6]): bound directly
B3: BCoR fragment 317-547: hexahistidine tagged fusion protein containing residues 317 to 547 of BCoR (protein)
chain: SAKAVTSGLPGDTALLLPPSPRPSPRVHLPTQPAADTYSEFHKHYARISTSPSVALSKPYMTVSSEFPAARLSNGKYPKAPEGGEGAQPVPGHARKTAVQDRKDGSSPPLLEKQTVTKDVTDKPLDLSSKVVDVDASKADHMKKMAPTVLVHSRAGSGLVLSGSEIPKETLSPPGNGCAIYRSEIISTAPSSWVVPGPSPNEENNGKSMSLKNKALDWAIPQQRSSSCPRM
modifications: left off: large carriers
notes: hexahistidine tagged fusion protein containing residues 317 to 547 of BCoR
